± gives the uncertainty stated by the source.
Assay: amyloid nucleation score (Sup35N fusion, yeast selection) (log enrichment); library NNK3; higher = more nucleation; inactive = no reads after selection
Summary of the method: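 Peptides of 20 random codons, each fused to Sup35N, were expressed in psi-negative yeast. Cells were induced with 100 μM copper sulfate for 24 hours and grown 7 days at 30°C on medium lacking adenine and uracil, and plasmid inserts before and after selection were Illumina-sequenced. Nucleation scores are DiMSum log enrichments of output over input reads, centred on the mode score of non-aggregating sequences, and sequences under 100 input reads were excluded.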

In the case of HCFFDFAYLTRCSSLRSKRC, the amyloid nucleation score is reported as “inactive”.

With FAIFGSWPKFFSCTP the amyloid nucleation score was 0.378 ± 0.41.

For CTNKSSVYEFCYCVADMANV, the amyloid nucleation score was “inactive”.

Work on CMFSPPCDLRGETVLRRPSL yielded an amyloid nucleation score of 0.143 ± 0.62.

YGFCSC gave an amyloid nucleation score of -0.033 ± 0.81.

In the case of DCLMDGDFRILGSFIHRFSE, the amyloid nucleation score is reported as “inactive”.

In the case of DECMARLNDWEGYAKD, the amyloid nucleation score is reported as “inactive”.

In the case of QVYGINLGSTGNEARYAVRD, the amyloid nucleation score is reported as “inactive”.

GASLYWIP gave an amyloid nucleation score of 0.234 ± 0.88.

In the case of YYWRMYCS, the amyloid nucleation score is reported as “inactive”.

For FALNL, the amyloid nucleation score was “inactive”.

With NSFDGTYVYTYLPSELSTFP the amyloid nucleation score was “inactive”.

NCRSFCC showed an amyloid nucleation score of 0.905 ± 0.094.

ALFSKKFI gave an amyloid nucleation score of 1.83 ± 0.059.

In the case of GSYFRATACPSLFCSFRVEW, the amyloid nucleation score is reported as “inactive”.

Work on INLVNTLFTIILMRSYRRTR yielded an amyloid nucleation score of 0.022 ± 0.31.

In the case of YVLQTFEGSCVLKRLHIRFM, the amyloid nucleation score is reported as “inactive”.

LGVGMQRYMSWRRK showed an amyloid nucleation score of 0.504 ± 0.29.

In the case of EPITASYMRILNCACVAYCG, the amyloid nucleation score is reported as “inactive”.

For DEMRKGRWHGDRLGRSDRQE, the amyloid nucleation score was “inactive”.

For INIYSKELSNDGFSTLHYFM, the amyloid nucleation score was “inactive”.

For LRGNECRPGVELPVTVSKFR, the amyloid nucleation score was “inactive”.

For LIACSHSRNT, the amyloid nucleation score was “inactive”.

In the case of HYGEFHKTNCARYRYFI, the amyloid nucleation score is reported as “inactive”.

For DILTMCEYDSDNNVGNLCYS, the amyloid nucleation score was “inactive”.

In the case of RYDMRVVSRNQLKYWTMGRE, the amyloid nucleation score is reported as -0.646 ± 1.1.

With DDLMASTMGSSMG the amyloid nucleation score was “inactive”.

WVSFCVCWNFNLY showed an amyloid nucleation score of 3.18 ± 0.064.

For YIGRAGQFDRRFFGSLCCAM, the amyloid nucleation score was “inactive”.

With LELRYCLFADPMI the amyloid nucleation score was “inactive”.

With QGHNHYVTILRFIWFLRPAM the amyloid nucleation score was “inactive”.

With IEPIECTMA the amyloid nucleation score was “inactive”.

In the case of SMSGWCVETFLRQEM, the amyloid nucleation score is reported as “inactive”.

Substance FARVRVNISFPISKSFCNIM has an amyloid nucleation score of 2.34 ± 0.083.

In the case of SLWIIERCILDHQYGSFRRQ, the amyloid nucleation score is reported as 1.65 ± 0.1.

For MIYGNWHIWFDVTAVKYEVG, the amyloid nucleation score was “inactive”.

For TPCNRREISWFVFSLPA, the amyloid nucleation score was “inactive”.

With YNCGHLNYGIVNFLFYVWLI the amyloid nucleation score was “inactive”.

In the case of RVWVMV, the amyloid nucleation score is reported as “inactive”.

In the case of FNIGFSSDSYAPWLFMICEM, the amyloid nucleation score is reported as “inactive”.

For SSPYDCSVNYLKNVSPRTLY, the amyloid nucleation score was “inactive”.

In the case of CAVYCNLNDVIGVFTILQRS, the amyloid nucleation score is reported as “inactive”.

For VRYFSKSGGRNPNVGRVVPV, the amyloid nucleation score was “inactive”.

With REPVRLQNKRLPRCQRREWC the amyloid nucleation score was “inactive”.

In the case of GELPLRVKVKSFHTDTSLRT, the amyloid nucleation score is reported as “inactive”.

With CSRSSLLLVDWPMVGSDKLL the amyloid nucleation score was “inactive”.

For YSISKAFPMLSRLDMDMFGA, the amyloid nucleation score was “inactive”.

Work on LSSLYLCCYACPNMLLI yielded an amyloid nucleation score of 1.58 ± 0.11.

Work on FVVVHLSVKSIVPAFVSWDR yielded an amyloid nucleation score of -0.36 ± 0.84.

For GGCGMDV, the amyloid nucleation score was “inactive”.

For DRRKAEFILTMGPEWYQQLN, the amyloid nucleation score was “inactive”.

In the case of YLVMRSKYLYRFYAMVLKDL, the amyloid nucleation score is reported as “inactive”.

For RLMDITL, the amyloid nucleation score was “inactive”.

For FWGFPRKSYADMMGSTRGSA, the amyloid nucleation score was “inactive”.

With LQDMPGNGFPVWVDISFSSY the amyloid nucleation score was “inactive”.

For LIFPWDLRKGAHHPGLRSCI, the amyloid nucleation score was “inactive”.

In the case of GSCFVKEVSGGHMLGS, the amyloid nucleation score is reported as “inactive”.

In the case of GVRNGPKLILFYLRSWHEAY, the amyloid nucleation score is reported as “inactive”.

For RCELCMSIKGLAVNNIR, the amyloid nucleation score was 1.9 ± 0.1.
